Measured values published in PMC8466066, “Searching for Biological Function of the Mysterious PA2504 Protein from Pseudomonas aeruginosa” (International Journal of Molecular Sciences, 2021).

Target: the molecule itself
Experiment: SEC-MALS; purified recombinant PA2504 on a Superdex200 column with HELEOS light scattering instrument; 50 mM Tris-Cl pH 7.0, 300 mM NaCl, 0.5 mL/min

B1: His6-tagged PA2504, recombinant, purified from E. coli (plasmid pQE2504) (natural protein)
chain: MASWTLVDASAIAVRHPYTFYKPDAETIDRVAAGESVKLIFAFDTDNPDAPRAERLWVTVEGIEADGAFSGRLDNYPQYIRDLSLGERIVFEARHIINTEHDPRETPISRYARRCFVTRRVIDEGKAVGYLYREAPEEENDSGWRLMAGDESDDYMNTAGTTAYVSLGSVLNADDSILPLLDAPPGRAFERLADGSFIEVQGPEG
notes: PA2504, uncharacterised protein of Pseudomonas aeruginosa; the PA2504 gene without the start codon cloned into pQE-80L; Dimer by SEC-MALS; No removal of the tag is described; also called His6PA2504; recombinant PA2504 protein; source: E. coli BL21-DE3, purified (Ni-NTA)
- stoichiometry N: 2
